Assay results taken from patent US20030113828.

Target: integrin αIIbβ3 (wild type) (UniProt P08514)

## Syk truncation mutant (residues 1-330)
  adhesion dependent phosphorylation of Vav1: Over expression of Syk(1-330) also inhibited adhesion dependent phosphorylation of Vav1
